Laboratory results taken from patent US11701440B2, “Modified antibody and radioactive metal-labelled antibody” (NIHON MEDI-PHYSICS CO., LTD., priority 2018, dated 2023).

Assay: Animal Experiment (1): radioactivity distribution of 111In-labeled NGA in organs after tail vein administration
Protocol: Five mice per group were slaughtered 5 minutes or 1 hour after the administration, the blood and organs of interest were recovered, and after measuring the organ weight, the radioactivity was measured with an auto-well gamma counter.

[1] = 5 minutes after the administration, tail vein, male ddY mouse
[2] = 1 hour after the administration, tail vein, male ddY mouse
[3] = mouse, in vivo, iv, 11.1 kBq/8 ug protein/100 uL/mouse, 5 min
[4] = mouse, in vivo, iv, 11.1 kBq/8 ug protein/100 uL/mouse, 1 h

Substance: ^111In-DO3ABn-Gly-Lys-NGA
- radioactivity (% ID) Blood [1]: 0.1 ± 0.2 % ID
- radioactivity (% ID) Heart [1]: 0.0 ± 0.0 % ID
- radioactivity (% ID) Kidney [1]: 0.1 ± 0.0 % ID
- radioactivity (% ID) Liver [1]: 89.5 ± 3.4 % ID
- radioactivity (% ID) Lung [1]: 0.1 ± 0.1 % ID
- radioactivity (% ID) Pancreas [1]: 0.0 ± 0.0 % ID
- radioactivity (% ID) Small intestine [1]: 0.1 ± 0.1 % ID
- radioactivity (% ID) Spleen [1]: 0.2 ± 0.0 % ID
- radioactivity (% ID) Stomach [1]: 0.1 ± 0.1 % ID
- radioactivity (% ID) Blood [2]: 0.0 ± 0.0 % ID
- radioactivity (% ID) Heart [2]: 0.0 ± 0.0 % ID
- radioactivity (% ID) Kidney [2]: 0.2 ± 0.0 % ID
- radioactivity (% ID) Liver [2]: 89.1 ± 1.2 % ID
- radioactivity (% ID) Lung [2]: 0.0 ± 0.0 % ID
- radioactivity (% ID) Pancreas [2]: 0.0 ± 0.0 % ID
- radioactivity (% ID) Small intestine [2]: 2.5 ± 0.7 % ID
- radioactivity (% ID) Spleen [2]: 0.2 ± 0.0 % ID
- radioactivity (% ID) Stomach [2]: 0.1 ± 0.1 % ID

Substance: ^111In-DO3ABn-Phe-Lys-NGA
- radioactivity (% ID) Blood [3]: 0.1 ± 0.0 % ID
- radioactivity (% ID) Kidney [3]: 0.2 ± 0.0 % ID
- radioactivity (% ID) Liver [3]: 91.1 ± 6.2 % ID
- radioactivity (% ID) Lung [3]: 0.1 ± 0.0 % ID
- radioactivity (% ID) Small intestine [3]: 0.1 ± 0.1 % ID
- radioactivity (% ID) Spleen [3]: 0.2 ± 0.0 % ID
- radioactivity (% ID) Stomach [3]: 0.1 ± 0.1 % ID
- radioactivity (% ID) Kidney [4]: 0.9 ± 0.3 % ID
- radioactivity (% ID) Liver [4]: 49.5 ± 5.6 % ID
- radioactivity (% ID) Lung [4]: 0.1 ± 0.1 % ID
- radioactivity (% ID) Small intestine [4]: 27.8 ± 6.5 % ID
- radioactivity (% ID) Spleen [4]: 0.2 ± 0.1 % ID
- radioactivity (% ID) Stomach [4]: 1.1 ± 0.7 % ID
